Measurements reported in patent publication US20020168748.

What was measured:
[1] = target: T1, peptide GKKKKKKSKTKCVIM (C-terminus of K-ras4B)
T1 chain: GKKKKKKSKTKCVIM

[2] = target: T2, CaRho1 (Candida Rho1-like GTPase)
T2 chain: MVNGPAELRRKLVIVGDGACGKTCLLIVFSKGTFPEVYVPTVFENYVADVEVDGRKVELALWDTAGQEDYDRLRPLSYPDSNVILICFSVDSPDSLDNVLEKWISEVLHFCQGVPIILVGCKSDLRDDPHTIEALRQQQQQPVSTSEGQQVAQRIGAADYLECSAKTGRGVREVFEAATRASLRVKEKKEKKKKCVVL

[3] = target: T3, peptide RVKEKKEKKKKCVVL (C-terminus of CaRho1)
T3 chain: RVKEKKEKKKKCVVL

[4] = target: 1,3-β-glucan synthase (GS) complex, P38631
Chain of 1,3-β-glucan synthase (GS) complex, P38631 (P38631 whole entry, looked up, one chain of several): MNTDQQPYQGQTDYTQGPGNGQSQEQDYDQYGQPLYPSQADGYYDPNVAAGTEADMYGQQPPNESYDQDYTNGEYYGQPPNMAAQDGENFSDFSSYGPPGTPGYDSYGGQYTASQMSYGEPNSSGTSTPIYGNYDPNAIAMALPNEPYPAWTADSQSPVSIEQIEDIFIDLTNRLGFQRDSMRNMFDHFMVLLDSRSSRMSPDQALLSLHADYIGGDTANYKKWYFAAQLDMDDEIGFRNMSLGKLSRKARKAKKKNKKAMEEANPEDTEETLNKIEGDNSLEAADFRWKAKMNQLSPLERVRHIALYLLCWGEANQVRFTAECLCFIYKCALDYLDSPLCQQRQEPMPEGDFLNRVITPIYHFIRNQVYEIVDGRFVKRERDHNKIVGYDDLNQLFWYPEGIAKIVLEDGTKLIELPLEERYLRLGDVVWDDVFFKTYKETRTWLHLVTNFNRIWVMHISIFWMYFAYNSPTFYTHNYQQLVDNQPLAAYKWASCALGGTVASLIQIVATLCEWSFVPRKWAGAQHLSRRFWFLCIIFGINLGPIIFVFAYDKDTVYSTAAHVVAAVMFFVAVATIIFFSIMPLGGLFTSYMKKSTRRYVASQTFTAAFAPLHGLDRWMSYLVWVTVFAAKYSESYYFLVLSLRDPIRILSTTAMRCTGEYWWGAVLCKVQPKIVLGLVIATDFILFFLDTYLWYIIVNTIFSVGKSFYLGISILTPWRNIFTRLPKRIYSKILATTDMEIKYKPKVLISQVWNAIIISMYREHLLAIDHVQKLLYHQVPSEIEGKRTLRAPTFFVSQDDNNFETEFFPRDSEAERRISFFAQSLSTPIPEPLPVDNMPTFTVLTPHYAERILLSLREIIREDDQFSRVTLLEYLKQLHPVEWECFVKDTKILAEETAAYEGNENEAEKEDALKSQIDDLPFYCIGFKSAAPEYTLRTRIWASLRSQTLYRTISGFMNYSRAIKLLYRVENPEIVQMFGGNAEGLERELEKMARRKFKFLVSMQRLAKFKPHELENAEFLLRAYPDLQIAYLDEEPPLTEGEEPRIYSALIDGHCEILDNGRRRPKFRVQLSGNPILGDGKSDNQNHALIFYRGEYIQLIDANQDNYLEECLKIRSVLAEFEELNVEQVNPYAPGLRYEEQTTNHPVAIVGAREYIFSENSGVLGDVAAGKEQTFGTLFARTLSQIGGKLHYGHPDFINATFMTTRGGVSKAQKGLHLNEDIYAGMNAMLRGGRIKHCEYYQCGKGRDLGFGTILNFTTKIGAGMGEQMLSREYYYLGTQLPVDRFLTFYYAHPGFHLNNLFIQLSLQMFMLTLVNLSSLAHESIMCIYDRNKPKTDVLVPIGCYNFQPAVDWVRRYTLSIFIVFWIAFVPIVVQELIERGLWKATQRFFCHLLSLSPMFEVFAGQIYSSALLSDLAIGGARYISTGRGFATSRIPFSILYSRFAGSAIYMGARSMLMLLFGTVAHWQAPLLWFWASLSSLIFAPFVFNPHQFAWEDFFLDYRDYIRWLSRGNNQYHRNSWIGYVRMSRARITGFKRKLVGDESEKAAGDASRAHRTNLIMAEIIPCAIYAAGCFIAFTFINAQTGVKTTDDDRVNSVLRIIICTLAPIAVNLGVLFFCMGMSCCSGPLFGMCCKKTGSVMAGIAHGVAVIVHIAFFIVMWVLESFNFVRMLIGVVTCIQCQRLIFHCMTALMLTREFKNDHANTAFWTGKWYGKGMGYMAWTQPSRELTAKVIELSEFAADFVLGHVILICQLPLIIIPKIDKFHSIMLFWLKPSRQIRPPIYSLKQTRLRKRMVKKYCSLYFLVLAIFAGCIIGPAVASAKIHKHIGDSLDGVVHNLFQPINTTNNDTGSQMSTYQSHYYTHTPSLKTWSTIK

[5] = target: T4, peptide LQARRGKKKSGCLVL (C-terminus of huRhoA)
T4 chain: LQARRGKKKSGCLVL

peptide GCVLL = target: T5, peptide GCVLL
T5 chain: GCVLL

Chain of human RhoA, P61586 (P61586 whole entry): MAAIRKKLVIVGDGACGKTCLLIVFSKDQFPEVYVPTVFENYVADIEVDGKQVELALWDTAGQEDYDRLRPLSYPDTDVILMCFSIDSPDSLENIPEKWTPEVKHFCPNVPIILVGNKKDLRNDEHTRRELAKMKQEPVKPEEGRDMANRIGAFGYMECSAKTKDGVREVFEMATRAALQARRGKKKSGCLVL
Chain of H-RasCVLL, P01112 (P01112 whole entry, looked up): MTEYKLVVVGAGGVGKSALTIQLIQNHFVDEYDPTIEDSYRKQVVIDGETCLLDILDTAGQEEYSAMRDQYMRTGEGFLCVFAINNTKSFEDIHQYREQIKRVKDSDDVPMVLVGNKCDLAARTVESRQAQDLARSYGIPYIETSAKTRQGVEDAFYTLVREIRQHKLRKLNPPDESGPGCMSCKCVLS

Protein	prenylation of the peptide [1]	Km [2]	prenylation of the peptide [3]	Km (human RhoA, P61586)	Km (H-RasCVLL, P01112)	GS activity in rho1-3 membrane fractions at 37° C. [4]	GS activity in rho1-3 membranes complemented with GST-Rho1 [4]	prenylation of the peptide [5]	prenylation of the peptide (peptide GCVLL)
Candida GGTase (CaGGTase), geranylgeranyl protein transferase I purified from Candida cells (protein) chain 1: MTDSKYDYSDITPVDINTEEPQICQILYDEDYKQIMGLLLALMKAEEYSERALHITELGINELASHYTIWIYRFNILKNLPNRNLYDELDWCEEIALDNEKNYQIWNYRQLIIGRIMELNNNDFDPYREFLILEAMLSSDPKNHHVWSYRKWLVDTFDLHNDAKELSFVDKVIDTDLKNNSAWSHRFFLLFSKKHLATDNTIDEELNYVKDKIVKCPQNPSTWNYLLGIHERFDRSITQLEEFSLQFVDLEKDQVTSSFALETLAKIYTQQKKYNEARTVYDLLKSKYDPIRSNFWDYQISKLTSV chain 2: MNQLLINKHEKFFNRCLIGLPSTAQSEDSNKLAIIYFCLHGLQLIQKFQFTNQELIYYRNFIINQFMIENNQIISFRSTHYFQKTNQKYDCPNLSSTLFALYNLLILKSPYHTIINRKKIMNFLCKCQVKDGINKGGFVPTLYYDEENGDYKQYGEPDLRVCYMALLIRHLMKYDDNNNNNNREDSNETDIDLISLQQFILDRININGGFSSTIMDESHLGFTFCAIASLKLLNYPLEKLKSTKEWLIHRQVDYPENLYPKDGNGDNYEYYRNIDIGGFNGRENKLSDTCYSWWCTGSLYNIDVNFIKLVDLNKAEDYLLNKTQNQLFGGFGRDPDSTPDPMHSYLALASLSLWNHEKFALQEINPILTITKELYQFFKEEIKY	+	0.25 mM	+	NS	NS*	–	–	–	–
Recombinant glutathione-S-transferase (GST)-Rho1, preloaded with GTPγS (protein) MSQQVGNSIRRKLVIVGDGACGKTCLLIVFSKGQFPEVYVPTVFENYVADVEVDGRRVELALWDTAGQEDYDRLRPLSYPDSNVVLICFSIDLPDSLENVQEKWIAEVLHFCQGVPIILVGCKVDLRNDPQTIEQLRQEGQQPVTSQEGQSVADQIGATGYYECSAKTGYGVREVFEAATRASLMGKSKTNGKAKKNTTEKKKKKCVLL	–	–	–	–	–	GS activity was restored fully by the addition of GTPγS-bound GST-Rho1	–	–	–
Recombinant glutathione-S-transferase (GST)-Rho1, preloaded with GDP (protein) MSQQVGNSIRRKLVIVGDGACGKTCLLIVFSKGQFPEVYVPTVFENYVADVEVDGRRVELALWDTAGQEDYDRLRPLSYPDSNVVLICFSIDLPDSLENVQEKWIAEVLHFCQGVPIILVGCKVDLRNDPQTIEQLRQEGQQPVTSQEGQSVADQIGATGYYECSAKTGYGVREVFEAATRASLMGKSKTNGKAKKNTTEKKKKKCVLL	–	–	–	–	–	–	GTPγS could be replaced with GTP, but not GDP	–	–
S. cerevisiae GGTase (ScGGTase) (protein) chain 1: MEEYDYSDVKPLPIETDLQDELCRIMYTEDYKRLMGLARALISLNELSPRALQLTAEIIDVAPAFYTIWNYRFNIVRHMMSESEDTVLYLNKELDWLDEVTLNNPKNYQIWSYRQSLLKLHPSPSFKRELPILKLMIDDDSKNYHVWSYRKWCCLFFSDFQHELAYASDLIETDIYNNSAWTHRMFYWVNAKDVISKVELADELQFIMDKIQLVPQNISPWTYLRGFQELFHDRLQWDSKVVDFATTFIGDVLSLPIGSPEDLPEIESSYALEFLAYHWGADPCTRDNAVKAYSLLAIKYDPIRKNLWHHKINNLN chain 2: MCQATNGPSRVVTKKHRKFFERHLQLLPSSHQGHDVNRMAIIFYSISGLSIFDVNVSAKYGDHLGWMRKHYIKTVLDDTENTVISGFVGSLVMNIPHATTINLPNTLFALLSMIMLRDYEYFETILDKRSLARFVSKCQRPDRGSFVSCLDYKTNCGSSVDSDDLRFCYIAVAILYICGCRSKEDFDEYIDTEKLLGYIMSQQCYNGAFGAHNEPHSGYTSCALSTLALLSSLEKLSDKFKEDTITWLLHRQVSSHGCMKFESELNASYDQSDDGGFQGRENKFADTCYAFWCLNSLHLLTKDWKMLCQTELVTNYLLDRTQKTLTGGFSKNDEEDADLYHSCLGSAALALIEGKFNGELCIPQEIFNDFSKRCCF	+	0.08 mM	+	< 0.1 mM	NS	–	–	+	Human GGTase can prenylate peptides that lack the polylysine region, whereas the fungal GGTases can not
